From PMC7141810, “UBP12 and UBP13 negatively regulate the activity of the ubiquitin-dependent peptidases DA1, DAR1 and DAR2” (eLife, 2020) come the findings set out here.

The chains are these.
B1: HIS-MBP-DAR2 (natural protein, Arabidopsis thaliana, UniProt Q0WSN2 1-528, looked up)
chain: MDSSSSSSSSSPSSSYGVARVSHISNPCIFGEVGSSSSSTYRDKKWKLMKWVSKLFKSGSNGGGSGAHTNHHPPQFQEDENMVFPLPPSSLDDRSRGARDKEELDRSISLSLADNTKRPHGYGWSMDNNRDFPRPFHGGLNPSSFIPPYEPSYQYRRRQRICGGCNSDIGSGNYLGCMGTFFHPECFRCHSCGYAITEHEFSLSGTKPYHKLCFKELTHPKCEVCHHFIPTNDAGLIEYRCHPFWNQKYCPSHEYDKTARCCSCERLESWDVRYYTLEDGRSLCLECMETAITDTGECQPLYHAIRDYYEGMYMKLDQQIPMLLVQREALNDAIVGEKNGYHHMPETRGLCLSEEQTVTSVLRRPRLGAHRLVGMRTQPQRLTRKCEVTAILVLYGLPRLLTGAILAHELMHGWLRLNGFRNLNPEVEEGICQVLSYMWLESEVLSDPSTRNLPSTSSVATSSSSSFSNKKGGKSNVEKKLGEFFKHQIAHDASPAYGGGFRAANAAACKYGLRRTLDHIRLTGTFPL
notes: DAR2, Arabidopsis thaliana, AT2G39830; source: E. coli BL21 (DE3), purified (NI-NTA agarose beads)
B2: HIS-MBP-DA1 (natural protein, Arabidopsis thaliana, UniProt P0C7Q8 1-532, looked up)
chain: MGWFNKIFKGSNQRLRVGNNKHNHNVYYDNYPTASHDDEPSAADTDADNDEPHHTQEPSTSEDNTSNDQENEDIDRAIALSLLEENQEQTSISGKYSMPVDEDEQLARALQESMVVGNSPRHKSGSTYDNGNAYGAGDLYGNGHMYGGGNVYANGDIYYPRPITFQMDFRICAGCNMEIGHGRFLNCLNSLWHPECFRCYGCSQPISEYEFSTSGNYPFHKACYRERYHPKCDVCSHFIPTNHAGLIEYRAHPFWVQKYCPSHEHDATPRCCSCERMEPRNTRYVELNDGRKLCLECLDSAVMDTMQCQPLYLQIQNFYEGLNMKVEQEVPLLLVERQALNEAREGEKNGHYHMPETRGLCLSEEQTVSTVRKRSKHGTGKWAGNITEPYKLTRQCEVTAILILFGLPRLLTGSILAHEMMHAWMRLKGFRTLSQDVEEGICQVMAHKWLDAELAAGSTNSNAASSSSSSQGLKKGPRSQYERKLGEFFKHQIESDASPVYGDGFRAGRLAVHKYGLRKTLEHIQMTGRFPV
notes: DA1, Arabidopsis thaliana, AT1G19270; source: E. coli BL21 (DE3), purified (NI-NTA agarose beads)
B3: HIS-MBP-DAR1 (natural protein, Arabidopsis thaliana, UniProt Q8W4F0 1-553, looked up)
chain: MGWLTKILKGSSHKFSDGQCNGRYREDRNLEGPRYSAEGSDFDKEEIECAIALSLSEQEHVIPQDDKGKKIIEYKSETEEDDDDDEDEDEEYMRAQLEAAEEEERRVAQAQIEEEEKRRAEAQLEETEKLLAKARLEEEEMRRSKAQLEEDELLAKALQESMNVGSPPRYDPGNILQPYPFLIPSSHRICVGCQAEIGHGRFLSCMGGVWHPECFCCNACDKPIIDYEFSMSGNRPYHKLCYKEQHHPKCDVCHNFIPTNPAGLIEYRAHPFWMQKYCPSHERDGTPRCCSCERMEPKDTKYLILDDGRKLCLECLDSAIMDTHECQPLYLEIREFYEGLHMKVEQQIPMLLVERSALNEAMEGEKHGHHHLPETRGLCLSEEQTVTTVLRRPRIGAGYKLIDMITEPCRLIRRCEVTAILILYGLPRLLTGSILAHEMMHAWLRLNGYPNLRPEVEEGICQVLAHMWLESETYAGSTLVDIASSSSSAVVSASSKKGERSDFEKKLGEFFKHQIESDSSSAYGDGFRQGNQAVLKHGLRRTLDHIRLTGTFP
notes: DAR1, Arabidopsis thaliana, AT4G36860; source: E. coli BL21 (DE3), purified (NI-NTA agarose beads)

The target in the first experiment is T1, GST-UBP13 (Arabidopsis thaliana, UniProt Q84WU2 1-1115).
T1 construct: UBP13, Arabidopsis thaliana, AT3G11910; called full-length; also called full-length GST-UBP13; source: E. coli BL21 (DE3), purified (Glutathione Sepharose 4B beads)
T1 sequence (looked up): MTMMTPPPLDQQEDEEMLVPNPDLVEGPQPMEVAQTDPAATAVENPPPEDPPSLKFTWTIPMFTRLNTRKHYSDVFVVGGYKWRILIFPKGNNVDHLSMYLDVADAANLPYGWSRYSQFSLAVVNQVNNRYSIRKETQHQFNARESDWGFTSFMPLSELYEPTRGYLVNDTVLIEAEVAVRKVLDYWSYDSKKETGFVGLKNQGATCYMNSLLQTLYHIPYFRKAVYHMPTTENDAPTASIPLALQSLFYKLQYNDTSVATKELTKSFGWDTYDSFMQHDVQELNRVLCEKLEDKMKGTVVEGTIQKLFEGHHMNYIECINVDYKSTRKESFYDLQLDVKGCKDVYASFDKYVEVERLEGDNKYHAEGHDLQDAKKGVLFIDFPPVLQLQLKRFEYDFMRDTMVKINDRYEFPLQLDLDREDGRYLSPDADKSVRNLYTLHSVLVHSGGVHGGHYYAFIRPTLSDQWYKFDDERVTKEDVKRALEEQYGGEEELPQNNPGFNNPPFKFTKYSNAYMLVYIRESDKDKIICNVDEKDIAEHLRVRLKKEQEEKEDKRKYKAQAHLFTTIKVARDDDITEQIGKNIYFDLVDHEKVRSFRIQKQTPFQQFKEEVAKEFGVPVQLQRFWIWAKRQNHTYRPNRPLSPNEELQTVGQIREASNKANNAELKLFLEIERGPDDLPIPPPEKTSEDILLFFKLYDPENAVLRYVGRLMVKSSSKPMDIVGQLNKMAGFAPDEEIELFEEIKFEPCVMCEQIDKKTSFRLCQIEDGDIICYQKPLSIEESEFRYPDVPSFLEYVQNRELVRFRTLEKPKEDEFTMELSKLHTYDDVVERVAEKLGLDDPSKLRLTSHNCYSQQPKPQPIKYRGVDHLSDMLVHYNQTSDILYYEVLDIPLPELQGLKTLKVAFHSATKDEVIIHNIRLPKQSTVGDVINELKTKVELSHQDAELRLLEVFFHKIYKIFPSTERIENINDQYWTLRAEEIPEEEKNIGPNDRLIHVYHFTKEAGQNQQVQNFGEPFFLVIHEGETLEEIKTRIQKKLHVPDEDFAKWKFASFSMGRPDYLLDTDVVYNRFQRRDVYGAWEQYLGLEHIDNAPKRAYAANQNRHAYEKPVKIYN
Kind of experiment: pull-down; in vitro; equal amounts of free GST, GST-UBP12 or GST-UBP13 as baits incubated with HIS-MBP-DA1, -DAR1 or -DAR2; purification with anti-GST beads; Western blot. To be noted: both partners purified.
Take B1: the binding result is “binds”.
As for B2, the binding result is given as “binds”.
Still for that read-out and setting: to B3 belongs “binds”.

The next experiment deals with T2, GST-UBP12 (Arabidopsis thaliana, UniProt Q9FPT1 1-1116).
T2 construct: UBP12, Arabidopsis thaliana, AT5G06600; called full-length; also called full-length GST-UBP12; source: E. coli BL21 (DE3), purified (Glutathione Sepharose 4B beads)
T2 sequence (looked up): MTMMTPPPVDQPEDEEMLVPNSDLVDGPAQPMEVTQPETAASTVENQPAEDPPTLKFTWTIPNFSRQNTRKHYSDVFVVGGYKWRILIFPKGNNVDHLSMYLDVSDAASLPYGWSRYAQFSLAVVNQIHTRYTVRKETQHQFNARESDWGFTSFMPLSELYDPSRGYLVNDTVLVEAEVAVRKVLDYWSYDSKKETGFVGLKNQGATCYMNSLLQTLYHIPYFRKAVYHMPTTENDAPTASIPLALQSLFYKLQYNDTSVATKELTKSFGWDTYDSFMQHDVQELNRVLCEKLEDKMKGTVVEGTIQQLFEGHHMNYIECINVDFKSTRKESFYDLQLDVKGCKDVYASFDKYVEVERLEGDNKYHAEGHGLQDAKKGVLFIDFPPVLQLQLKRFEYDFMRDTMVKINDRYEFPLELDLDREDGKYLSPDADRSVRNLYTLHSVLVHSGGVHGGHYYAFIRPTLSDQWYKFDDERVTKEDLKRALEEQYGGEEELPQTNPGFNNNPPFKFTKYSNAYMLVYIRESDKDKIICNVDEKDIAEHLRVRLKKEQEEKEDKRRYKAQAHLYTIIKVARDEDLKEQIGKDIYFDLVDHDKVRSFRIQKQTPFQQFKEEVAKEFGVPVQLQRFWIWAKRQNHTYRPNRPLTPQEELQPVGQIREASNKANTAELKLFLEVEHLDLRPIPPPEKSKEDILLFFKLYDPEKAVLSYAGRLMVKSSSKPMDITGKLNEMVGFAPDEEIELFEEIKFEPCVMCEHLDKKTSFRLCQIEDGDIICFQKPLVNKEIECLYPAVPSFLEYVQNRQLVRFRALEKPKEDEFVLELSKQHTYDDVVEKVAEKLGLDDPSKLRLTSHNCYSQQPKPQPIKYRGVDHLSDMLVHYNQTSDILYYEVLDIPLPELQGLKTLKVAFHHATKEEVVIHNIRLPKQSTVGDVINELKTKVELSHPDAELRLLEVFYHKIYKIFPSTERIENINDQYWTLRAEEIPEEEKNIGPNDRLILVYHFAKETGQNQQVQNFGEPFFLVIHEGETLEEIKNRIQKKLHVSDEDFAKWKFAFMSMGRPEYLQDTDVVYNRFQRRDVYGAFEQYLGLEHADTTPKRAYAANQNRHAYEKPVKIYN
The experiment is described as above. The conditions noted are these: both partners purified.
With B1, the binding result is reported as “binds”.
Regarding B2, the binding result was “binds”.
The same measure, in the same setting: to B3 belongs “binds”.
